The results in this text go back to patent publication US20240239878A1 (SHANGHAI QILU PHARMACEUTICAL RESEARCH AND DEVELOPMENT CENTRE, published 2024).

Test [1] has as its target T1, human DLL3 on SHP-77 cells (human, UniProt Q9NYJ7 27-618).
T1 construct: also called DLL3-expressing cells (SHP-77)
T1 sequence: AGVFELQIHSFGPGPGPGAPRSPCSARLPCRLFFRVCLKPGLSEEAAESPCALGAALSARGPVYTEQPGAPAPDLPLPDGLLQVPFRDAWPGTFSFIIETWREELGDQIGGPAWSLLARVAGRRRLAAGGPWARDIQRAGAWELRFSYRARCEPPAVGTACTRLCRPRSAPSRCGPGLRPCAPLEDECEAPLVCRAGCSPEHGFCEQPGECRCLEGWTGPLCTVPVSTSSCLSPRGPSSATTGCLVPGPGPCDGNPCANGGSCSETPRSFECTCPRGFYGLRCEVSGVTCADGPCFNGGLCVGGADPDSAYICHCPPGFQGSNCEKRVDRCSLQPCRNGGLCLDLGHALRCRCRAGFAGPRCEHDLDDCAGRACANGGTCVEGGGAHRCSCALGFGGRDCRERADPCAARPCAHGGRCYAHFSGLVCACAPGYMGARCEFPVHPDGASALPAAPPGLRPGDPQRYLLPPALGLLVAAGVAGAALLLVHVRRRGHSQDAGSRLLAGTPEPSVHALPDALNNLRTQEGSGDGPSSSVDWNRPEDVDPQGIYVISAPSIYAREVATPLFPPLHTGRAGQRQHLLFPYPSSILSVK
Description: flow cytometry, SHP-77 cells. How it is done:
SHP-77 and HEK293-cyno DLL3 cells were cultured. The culture medium for SHP-77 cells were RPMI1640+10% FBS, and the culture medium for HEK293 cyno DLL3 cells were DMEM+10% FBS+200 μg/ml Hygromycin. The cells were cultured in a T75 cell culture flask at a 37° C. 5% CO₂ incubator. When using cells, they are washed with sterile DPBS, digested with 0.25% trypsin EDTA for about 5 minutes, and then stopped with a complete medium.
The digested cells were centrifuged at 1000 rpm for 5 min at room temperature. The supernatant was discarded and the cells were resuspended in 100 μL of 1% BSA (in PBS). The cells were counted and adjusted to a cell density of 1E6/m. The dilute cells were seeded in a 96-well round-bottom culture plate (corning 3799), and centrifuged at 1500 rpm for 5 min at 4° C. The supernatant was discarded and the cells were stored at 4° C. until use. Antibody samples to be tested were diluted with 1% BSA (in PBS) at a starting concentration of 100 nM, downwards by a 10-fold gradient for 7 concentrations. The cells were resuspended with the diluted antibody at 100 μL/well and incubated for 1 hour at 4° C. The cells were centrifuged at 1500 rpm for 5 minutes at 4° C. and the supernatant was discarded. The cells were resuspended and washed with 160 μL of 1% BSA (in PBS), centrifuged at 1500 rpm for 5 minutes at 4° C. The supernatant was discarded. The secondary antibody (goat anti human IgG Fc PE) was diluted 1:200 with 1% BSA (in PBS) according to the manufacturer's instructions and the cells were resuspended with the diluted secondary antibody, 100 μL/well, and incubated for 0.5 h at 4° C. The cells were centrifuged at 1500 rpm for 5 minutes at 4° C. and the supernatant was discarded. The cells were resuspended and washed with 160 μL of 1% BSA (in PBS), centrifuged at 1500 rpm for 5 minutes at 4° C. The supernatant was discarded. The cells were resuspended in 100 μL of 1% BSA (in PBS), and filtered across a 300 mesh gauze. The mean fluorescence intensity of the PE channels was measured by flow cytometry.
The analyzed mean fluorescence intensity was imported into Graphpad to analyze the median-binding concentration (hereinafter referred to as EC50) of antibody and cell and the top mean fluorescence intensity (Top MFI).

The target in test [2] is T2, human DLL4 (Sino Biological, Cat. No. 10171-H08H) (human, UniProt Q9NR61 27-529).
T2 construct: also called family protein DLL4
Description: ELISA, plate coated with human DLL4 at 1 ug/mL, OD 450nm. How it is done:
The antigen was washed three times with PBST, 300 μL/well. The antigen was blocked with 1% BSA (in PBST), 200 μL/well, and incubated at 37° C. for 1.5 hours.
Antibodies to be tested were diluted with 1% BSA (in PBS) at a starting concentration of 100 nM, downwards by a 10-fold gradient for 7 concentrations. The plates were washed three times with PBST, 300 μL/well. The diluted antibody was added to an ELISA plate at 100 μL/well and incubated at room temperature for 2 hours. The antibodies were washed three times with PBST, 300 μL/well. The secondary antibodies (goat anti-human IgG Fc for DLL4 (HRP), 1:20000 dilution: HRP goat anti-mouse IgG (H+L) for DLL1, 1:10000 dilution) were diluted with 1% BSA in PBST. The diluted secondary antibodies were added to the ELISA plate at 100 μL/well and incubated at room temperature for 1 hour. The plates were washed 6 times with PBST, 300 μL/well. The developing solution (TMA and TMB 1:1 mixed) was prepared. The developing solution was added to the plate, 100 μL/well, and incubated in the dark for 5 min. 50 μL of ELISA stop solution was added to the plate and shaken well.
OD450s were read on the envision and plotted on the GraphPad for EC₅₀ values.
In general terms: ELISA stands for enzyme-linked immunosorbent assay.

By EC50 is commonly meant the concentration needed to bring the measured effect to its halfway point. The low end stands for a more potent agent, the high end for a less potent agent.

Where a chain is given by its changes, count along the chain named.

T2 sequence (Q9NR61 27-529 limits assumed): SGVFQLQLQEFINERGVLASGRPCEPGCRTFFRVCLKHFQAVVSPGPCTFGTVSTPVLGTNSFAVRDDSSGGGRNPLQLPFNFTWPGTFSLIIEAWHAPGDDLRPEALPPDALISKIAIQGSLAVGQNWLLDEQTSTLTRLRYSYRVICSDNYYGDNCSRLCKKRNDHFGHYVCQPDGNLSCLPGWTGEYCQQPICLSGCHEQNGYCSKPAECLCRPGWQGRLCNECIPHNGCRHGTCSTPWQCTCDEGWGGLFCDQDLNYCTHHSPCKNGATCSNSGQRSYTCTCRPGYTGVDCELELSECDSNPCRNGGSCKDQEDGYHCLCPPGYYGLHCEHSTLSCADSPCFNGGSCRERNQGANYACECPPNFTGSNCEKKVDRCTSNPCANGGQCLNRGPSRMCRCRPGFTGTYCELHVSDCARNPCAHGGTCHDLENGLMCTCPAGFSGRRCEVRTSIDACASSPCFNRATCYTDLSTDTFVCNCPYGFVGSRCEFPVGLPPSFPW

B1: DLL3-122 camelid-derived anti-DLL3 chimeric antibody (antibody, human IgG1, V domains shown)
VH: QVQLVESGGGSVQAGGSLRLSCTASGDTYRSYCMGWFRKAPGKEREGVADIVSDGSTSYADSVKGRFTISKDNAKNTLYLQMNSLKPEDTAMYYCAVDRGGSGGYCYTGRYDYWGQGTQVTVSS
B1: in test [1], it took 478 pM to reach a half-maximal effect (EC50) and the “Top MFI” value is 877 MFI.

B2: hDLL3-122 camelid-derived humanized anti-DLL3 antibody (antibody, V domains shown)
VH: EVQLVESGGGLVQPGGSLRLSCAASGDTYRSYCMGWFRQAPGKEREGVADIVSDGSTSYADSVKGRFTISRDNSKNTLYLQMNSLRAEDTAVYYCAVDRGGSGGYCYTGRYDYWGQGTLVTVSS
For B2, in test [1], the concentration for a half-maximal effect (EC50) is 589 pM and the “Top MFI” value is 778 MFI. Also, the binding result in test [2] is reported as “no binding (tested: 100 nM)”.

B3: DLL3-26 camelid-derived anti-DLL3 chimeric antibody (antibody, human IgG1, V domains shown)
VH: QVQLVESGGGSVQAGGSLRLSCAASGDIYSSSYVGWFRQAPGKEREGVAIIYTSGDSTYYANSVKGRFTISQDKAKKTLYLQMNSLKPEDTAMYYCAARFAIDNSNYWGQGTQVTVSS
As for B3, in test [1], the half-maximal effective concentration (EC50) turned out to be 499 pM and the “Top MFI” value is 841 MFI.

B4: hDLL3-26 camelid-derived humanized anti-DLL3 antibody (antibody, V domains shown)
VH: EVQLVESGGGLVQPGGSLRLSCAASGDIYSSSYVGWFRQAPGKEREGVAIIYTSGDSTYYADSVKGRFTISRDNSKNTLYLQMNSLRAEDTAVYYCAARFAIDNSNYWGQGTLVTVSS
Turning to B4, in test [1], a half-maximal response (EC50) required 786 pM and the “Top MFI” value was found to be 696 MFI. Further, the binding result in test [2] is listed as “no binding (tested: 100 nM)”.

B5: DLL3-3 camelid-derived anti-DLL3 chimeric antibody (antibody, human IgG1, V domains shown)
VH: DVQLVESGGGSVQAGGSLKLSCKSPTYTISSGYMGWFRQAPGKEREGVAAIYIGGSTTLYADSVKGRFTISADNAEKTVYLQMNTLKPEDSAMYYCAAQLRPNSAYHPLDGRKYNYWGQGTQVTVSS
In the case of B5, in test [1], the response was half-maximal at 61 pM (EC50) and the “Top MFI” value was 864 MFI.

B6: hDLL3-3-1 camelid-derived humanized anti-DLL3 antibody (antibody, human IgG1, V domains shown)
VH: EVQLVESGGGLVQPGGSLRLSCAASTYTISSGYMGWFRQAPGKEREGVAAIYIGGSTTLYADSVKGRFTISRDNSKNTLYLQMNSLRAEDTAVYYCAAQLRPNSAYHPLDGRKYNYWGQGTLVTVSS
Consider B6, for which, in test [1], the response was half-maximal at 86 pM (EC50) and the “Top MFI” value turned out to be 702 MFI. In test [2], the binding result is reported as “no binding (tested: 100 nM)”.

B7: hDLL3-3-2 camelid-derived humanized anti-DLL3 antibody (antibody, V domains shown)
VH: B6 VH with A23K, A24S, S25P
Consider B7, for which, in test [1], the concentration giving a half-maximal response (EC50) was 49 pM and the “Top MFI” value came out at 691 MFI. In addition, in test [2], the binding result is “no binding (tested: 100 nM)”.
